The results in this text go back to the RNAGym collection of RNA variant scans (doi:10.7554/elife.80360).

The labels stand for the following.
B1: HDV Ribozyme (parent)
chain: GGCCGGCAUGGUCCCAGCCUCCUCGCUGGCGCCGGCUGGGCAACAUUCCGAGGGGACCGUCCCCUCGGUAAUGGCGAAUGGGACCCA

The variants in this data set derive from B1. Kind of data set: self-cleavage, relative activity (ratio to wild type); higher = more cleavage; co-transcriptional.
As to GGCCGGCAUGGUCCCAGCCUCCUCGCGGGCGCCGGCUGGGCAACAUUCCGAGGGGACCGUCCCGUCGGUAAUGGCGAAUGGGACCCA [U27G C64G], the self-cleavage was 0.87.

As to GGCCGGCAUGGUCCCAGCCUCCUCGCUGGCGCCGGCUGGGCAACAUUCAGAGGGGACCGUCCCCUCGGAAAUGGCGAAUGGGACCCA [C49A U69A], the self-cleavage came out at 0.808.

For GGCCGGCAUGGUCCCAGCCUCCUCGCUGGCGCCGCCUGGGCAACAUUCCGAGGGGACCGUCCCCUCGGUACUGGCGAAUGGGACCCA [G35C A71C], the self-cleavage came to 0.

For the variant GGCCGGCAUGGUCCCAGCAUCCUCGCUGGCGCCGGCUGGGCACCAUUCCGAGGGGACCGUCCCCUCGGUAAUGGCGAAUGGGACCCA [C19A A43C], the self-cleavage stood at 0.0665.

For GGCCGGCAUGGUCCCAGCCUCCUCGCUGGCGCCGGCUGGGCAACAUUCCGAGGGGACCGUCCCCUCUGUAAUGGCGAACGGGACCCA [G67U U79C], the self-cleavage is 0.231.

Consider GGCCGGCAUGGUCCCAGCCUCCCCGCUGGCGCCGGCUGGGCAACAUUCCGAGGGGACCGUCCCCUCGGUAAUGGCGAAUGUGACCCA [U23C G81U], for which the self-cleavage worked out at 0.499.

For the variant GGCCGGCAUGGUCCCAGCCUCCUCGCUGGCGCCGGCUGGGCAACAUUCCGAGGCGACCGUCCCCUCGGUAAUGGCGCAUGGGACCCA [G54C A77C], the self-cleavage came to 0.426.

On to GGCCGGAAUGGUCCCAGCCUCCUCGCUGGCGCCGGCUGGGCAACAUUCCGAGGGCACCGUCCCCUCGGUAAUGGCGAAUGGGACCCA [C7A G55C], for which the self-cleavage was 0.778.

Turning to GGCCGGCAUGGUCCCAGCCUCCUCGCUGGCGCCGGCUGGGCAACAUUCCUAGGGGACCGUCCCCUCGGUAAUGGUGAAUGGGACCCA [G50U C75U], the self-cleavage amounted to 0.13.

Turning to GGCGGGCAUGGUUCCAGCCUCCUCGCUGGCGCCGGCUGGGCAACAUUCCGAGGGGACCGUCCCCUCGGUAAUGGCGAAUGGGACCCA [C4G C13U], the self-cleavage was found to be 0.369.

For the variant GGCCCGCAUGGUCCCAGCCUCCUCGCUGGCGCCGGCUGGGCAACAUUCCGAGGGGACCGUCCCCUCGGUAAUGGCCAAUGGGACCCA [G5C G76C], the self-cleavage is 0.199.

As to GGCCGGCAUGGUCCCAGCCUCCUCGCUGGCGCCGGCUGGGCAACAUUCCGAGGGGUCCGUCCCCUCGGUAAUGGCGAAUGGGACCAA [A56U C86A], the self-cleavage amounted to 1.01.

As for GGCCGGCAUGGUCCCAGCCUCCUCGCUGGCGCCGGCUGGGCAACAUUACGAGGGGACCGUCCCCUCGGUAAUGGAGAAUGGGACCCA [C48A C75A], the self-cleavage stood at 0.326.

GGCCGGCAUGGUCCCAGCCUCCGCGCUGGCGCCGGCUGGGCAACAUUCCGAGGGGACCAUCCCCUCGGUAAUGGCGAAUGGGACCCA [U23G G59A]: the self-cleavage is 0.708.

For the variant GGCCGGCAUGGUACCAGCCUCCUCGCUGGCGCCGGCUGGGCAACAUGCCGAGGGGACCGUCCCCUCGGUAAUGGCGAAUGGGACCCA [C13A U47G], the self-cleavage was found to be 0.138.

GGCCGGCAUGGUGCCAGCCUCCUCGCUGGCGCCGGCGGGGCAACAUUCCGAGGGGACCGUCCCCUCGGUAAUGGCGAAUGGGACCCA [C13G U37G]: the self-cleavage was 0.

GGCCGGCAUGGUCCCAGCCUCCUCGCUGGCGCCGGCUGGGCACCGUUCCGAGGGGACCGUCCCCUCGGUAAUGGCGAAUGGGACCCA [A43C A45G]: the self-cleavage is 0.643.

In the case of GGCCGGCAUGGUCCCAGCCUCCUCGCUGGCGCCGGCUGGGCAACAUUCCGAGGGGACCGUCCCUUCGGUAAUGGCGAAUGGGCCCCA [C64U A83C], the self-cleavage was determined as 0.332.

As for GGCCAGCAUGGUCCCAGCCUCCUCGCUGGCGCCGGCUGGGCAACAUUCCGAGGGGACCGUCCCCUCGGUAAUGGCGGAUGGGACCCA [G5A A77G], the self-cleavage turned out to be 0.

With GGCCGGCAUGGUCCCAGCCUCCACGCUGGCGCCGGCUGGGCAACAUUCCGAUGGGACCGUCCCCUCGGUAAUGGCGAAUGGGACCCA [U23A G52U], the self-cleavage came out at 0.819.

For the variant GGCCGGCAUGGUCCCAGCCUCCUCGCUGGCGCCGGCUGGGCAACAUUCCGAGGGGACCGUCCCCUCGGUAUUGGCGAAUGGGCCCCA [A71U A83C], the self-cleavage amounted to 0.391.

With GGCCGGCAUGGUCCCAGCCUCCUGUCUGGCGCCGGCUGGGCAACAUUCCGAGGGGACCGUCCCCUCGGUAAUGGCGAAUGGGACCCA [C24G G25U], the self-cleavage was 0.0773.

As to GGCCGGCAUGGUCCCAACCUACUCGCUGGCGCCGGCUGGGCAACAUUCCGAGGGGACCGUCCCCUCGGUAAUGGCGAAUGGGACCCA [G17A C21A], the self-cleavage is 0.0297.

Consider GGCCGGCAUGGUCCCAGCCUCCUCGCUGGCGCCGGCUGAGGAACAUUCCGAGGGGACCGUCCCCUCGGUAAUGGCGAAUGGGACCCA [G39A C41G], for which the self-cleavage is 0.228.

On to GGCCGGCAUGGUCCCAGCCUCCUCGCUGGCGCCGGCUGGACAACAUUGCGAGGGGACCGUCCCCUCGGUAAUGGCGAAUGGGACCCA [G40A C48G], for which the self-cleavage was found to be 1.06.

With GGCCGUCAUGGUCCCAGCCUCCUCGCUGGCGCCGGCUGGGCAACAUUCCGAGGGGACCGUCCCCUCGGUCAUGGCGAAUGGGACCCA [G6U A70C], the self-cleavage came out at 0.135.

In the case of GGCCGGCAUGGUCCCAGCCUCCUCGCUGGCGCCGGCUGGGCUACAUUCCGAGGGGACCGUCCCCUCGGUAGUGGCGAAUGGGACCCA [A42U A71G], the self-cleavage was found to be 0.431.

Regarding GACCGGCAUGGUCCCAGCCUCCUCGCUGGCGCCGGCUGGGCAACAGUCCGAGGGGACCGUCCCCUCGGUAAUGGCGAAUGGGACCCA [G2A U46G], the self-cleavage is 0.0817.

For GGCCGGCAUUGUCCCAGCCUCCUCGCUGGCGCCGGCUGGGCAACAUUCCGAGGGGACCGUCCCGUCGGUAAUGGCGAAUGGGACCCA [G10U C64G], the self-cleavage worked out at 0.669.

Consider GGCCGGCAUGGUCCCAGCCUCCUCGCUGGCGCCGGGUGGGCAACAUUCUGAGGGGACCGUCCCCUCGGUAAUGGCGAAUGGGACCCA [C36G C49U], for which the self-cleavage is 0.0811.

As to GGCAGGCAUGGUCCCAGCCUCCUCGCUGGCGCCGGCUGGGCAACAUUCCGAGGGGACCGUCCCCUCGGUAAUGGCGAGUGGGACCCA [C4A A78G], the self-cleavage stood at 0.147.

On to GGCCCGCAUGGUCCCAGCCUCCUCGCUGGCGCCGGCUGGGCUACAUUCCGAGGGGACCGUCCCCUCGGUAAUGGCGAAUGGGACCCA [G5C A42U], for which the self-cleavage is 0.
